The test system of one test is APAO enzyme. In kind it is biochemical, Exophiala spinifera. How it is done:
The following assay was used to determine the substrate specificity of the APAO enzyme. […] The APAO enzyme was recombinant enzyme produced,as GST fusion in E. coli, purified over a glutathione affinity column and cleaved with thrombin to remove the GST. All components were mixed at room temperature. The initial rate was determined in a spectrophotometer at 572 nm over one minute by absorbance units/second (BLANK). Ten microliters of APAO at 70 ug/ml was added and mixed. The initial rate was again determined at 572 nm over one minute in absorbance units/second (SAMPLE). The rates were converted to absorbance units/minute. The BLANK value was subtracted from the SAMPLE value. The absorbance units were converted to μM H2O2 wherein 1 μM H2O2 equals 0.138 absorbance units at pH 8.0.

The subject of another test is APAO. The test can be described thus: APAO activity of crude cell-free extract, TLC. In kind it is biochemical, Exophiala spinifera. To be noted: crude cell-free extract of induced Exophiala spinifera, TLC. The method, then:
For analysis of APAO activity, an alternative method was used. Equal volumes of sample and ^14C-AP1 (1 mg/ml, pH 8, 50 mM sodium phosphate) were incubated at room temperature for one to six days. Analytical thin-layer chromatography was then carried out on C60 HPK silica gel plates (Whatman #4807-700; 10×10 cm; 0.2 mm thick). After application of from 0.1 to 2 μl of aqueous sample, the plates were air-dried and developed in CHCl3:MeOH:CH3COOH:H20 (55:36:8:1). Plates were then air dried, and exposed to Phosphorlmager screen (Molecular Dynamics) or autoradiographic film. A Storm™ Phosphorlmager (Molecular Dynamics) was used to scan the image produced on the screen.
A cell-free extract that contains the deaminase activity was obtained by subjecting substrate-induced Exophiala spinifera cells to disruption using a Bead Beater™ in 50 mM Na-phosphate, pH 8.0, and recovering the cell-free supernatant by centrifugation and 0.45 micron filtration. Catabolic activity is assayed by incubating extracts with AP1 (hydrolyzed fumonisin BI backbone) or “^4C-labelled AP1 with the extract and evaluating by TLC on C18 or C60 silica. […] Other amine-containing substrates were tested for modification by the crude extract. […] Preparative amounts of the product, named 2-OP, have also been purified and analyzed by C13 nmr.

A short description of test [1]: Mutated APAO lysates from E coli, Amplex Red assay, substrate AP1. Format: biochemical. The method, then:
The following assay was used to determine the substrate specificity of the APAO enzyme. Reaction mix: 436 μl of 200 mM Na-phosphate, pH8.0; 50 μl substrate (10 mM); 2 μl Amplex Red (1 mg in 200 μl DMSO); and 2 μof Peroxidase (5000 U/ml). The APAO enzyme was recombinant enzyme produced,as GST fusion in E. coli, purified over a glutathione affinity column and cleaved with thrombin to remove the GST. All components were mixed at room temperature. The initial rate was determined in a spectrophotometer at 572 nm over one minute by absorbance units/second (BLANK). Ten microliters of APAO at 70 ug/ml was added and mixed. The initial rate was again determined at 572 nm over one minute in absorbance units/second (SAMPLE). The rates were converted to absorbance units/minute. The BLANK value was subtracted from the SAMPLE value. The absorbance units were converted to μM H2O2 wherein 1 μM H2O2 equals 0.138 absorbance units at pH 8.0.
The APAO molecules mutated at specific cysteines were tested in a bacterial expression system using the previously described Amplex Red assay. The results can be seen in the table below entitled “Cys(−) APAO lysates from E. coli.” The mutated APAO molecules can then be tested in maize, linked to a signal peptide, as previously described. Either one of the cysteines or two or three together could be mutated to serines without any measured loss in APAO enzyme activity of the E coli-expressed enzyme. […] The mutated versions of APAO operably linked to a signal sequence, which retain function when expressed as recombinant fusion proteins in E. coli may also provide additional stability or foldability when expressed in plants or other secretion expression systems.

The nature of test [2]: Mutated APAO lysates from E coli, Amplex Red assay, substrate FB1. Format: biochemical.
[3] abbreviates: 0.5 mg/mL substrate, pH 8.0, room temperature.
The mark [4] stands for this setting: 1 mM substrate, pH 8.0, room temperature.
Setting [5] is: Cys(−) APAO lysates from E coli.
Setting [6] is: Triple Cys(−) APAO lysates from E coli.

Like-named read-outs stand apart in the source and are kept apart here.

Turning to `CCCC[C@@H](C)[C@@H](OC(=O)C[C@@H](CC(=O)O)C(=O)O)[C@H](C[C@@H](C)CCCCCC[C@@H](O)C[C@H](O)[C@H](C)N)OC(=O)C[C@@H](CC(=O)O)C(=O)O` [Fumonisin B2], the RATE with APAO enzyme (setting [3]) is on record as 0.3058 μM H2O2/min.

In turn, `CCCC[C@@H](C)[C@@H](OC(=O)C[C@@H](CC(=O)O)C(=O)O)[C@H](C[C@@H](C)C[C@H](O)CCCCCC[C@H](O)[C@H](C)N)OC(=O)C[C@@H](CC(=O)O)C(=O)O` [Fumonisin B3] yielded an RATE with APAO enzyme (setting [4]) of 0.1449 μM H2O2/min.

For the molecule `CCCC[C@@H](C)[C@@H](OC(=O)C[C@@H](CC(=O)O)C(=O)O)[C@H](C[C@@H](C)CCCCCCCC[C@H](O)[C@H](C)N)OC(=O)C[C@@H](CC(=O)O)C(=O)O` [Fumonisin B4], the RATE in the test on APAO enzyme (setting [3]) worked out at 0.1728 μM H2O2/min.

In the case of `NCCc1ccc(O)c(O)c1` [dopamine], the RATE in the test on APAO enzyme (pH 8) is 0.0040 μM H2O2/min.

Take `CNC[C@H](O)c1ccc(O)c(O)c1` [epinephrine]: the RATE in the test with APAO enzyme (pH 8) came out at 0.0071 μM H2O2/min.

Molecule `NC[C@H](O)c1ccc(O)c(O)c1` [norepinephrine] yielded an RATE in the test with APAO enzyme (setting [4]) of 0.0087 μM H2O2/min.

For `CCCCCCCCCCCCCC[C@@H](O)[C@@H](O)[C@@H](N)CO` [phytosphingosine], the “modification by the crude extract” value in the test with APAO is recorded as “apparently not modified”.

With `NCCCNCCCCNCCCN` [spermine], in the test on APAO enzyme (pH 8), the RATE worked out at 0.0002 μM H2O2/min.

As to `CCCCCCCCCCCCCCC[C@@H](O)[C@@H](N)CO` [sphinganine], the “modification by the crude extract” value with APAO is on record as “apparently not modified”.

Consider `CCCCCCCCCCCCC/C=C/[C@@H](O)[C@@H](N)CO` [sphingosine], for which, in the test with APAO, the “modification by the crude extract” value is reported as “apparently not modified”.

B1: C359S, C461S: APAO mutated at both cysteines 359 and 461 (SEQ ID NO: 51), plasmid PHP16738 (protein)
chain: KDNVADVVVVGAGLSGLETARKVQAAGLSCLVLEAMDRVGGKTLSVQSGPGRTTINDLGAAWINDSNQSEVSRLFERFHLEGELQRTTGNSIHQAQDGTTTTAPYGDSLLSEEVASALAELLPVWSQLIEEHSLQDLKASPQAKRLDSVSFAHYCEKELNLPAVLGVANQITRALLGVEAHEISMLFLTDYIKSATGLSNIFSDKKDGGQYMRCKTGMQSISHAMSKELVPGSVHLNTPVAEIEQSASGCTVRSASGAVFRSKKVVVSLPTTLYPTLTFSPPLPAEKQALAENSILGYYSKIVFVWDKPWWREQGFSGVLQSSSDPISFARDTSIDVDRQWSITCFMVGDPGRKWSQQSKQVRQKSVWDQLRAAYENAGAQVPEPANVLEIEWSKQQYFQGAPSAVYGLNDLITLGSALRTPFKSVHFVGTETSLVWKGYMEGAIRSGQRGAAEVVASLVPAA
modifications: Cys (-) APAO; removal of cys 359 and 461 (Exophiala spinifera)
Take B1: the Conclusion entry is listed as “Fully/More Active” in test [1] (setting [5]); “more APAO activity in crude lysates than wild type enzyme” in test [1] (Cys(−) APAO lysates from E coli, listed as C359S+C461S); “Slightly active” in test [2] (setting [5]). The entries for the “M H2O2/min” value in test [1] (setting [5]) and in test [2] (setting [5]) were 3.90 μM H2O2/min and 0.16 μM H2O2/min, respectively.

B2: C461S: APAO mutated at cysteine 461 (SEQ ID NO: 49), plasmid PHP16737 (protein)
chain: KDNVADVVVVGAGLSGLETARKVQAAGLSCLVLEAMDRVGGKTLSVQSGPGRTTINDLGAAWINDSNQSEVSRLFERFHLEGELQRTTGNSIHQAQDGTTTTAPYGDSLLSEEVASALAELLPVWSQLIEEHSLQDLKASPQAKRLDSVSFAHYCEKELNLPAVLGVANQITRALLGVEAHEISMLFLTDYIKSATGLSNIFSDKKDGGQYMRCKTGMQSICHAMSKELVPGSVHLNTPVAEIEQSASGCTVRSASGAVFRSKKVVVSLPTTLYPTLTFSPPLPAEKQALAENSILGYYSKIVFVWDKPWWREQGFSGVLQSSSDPISFARDTSIDVDRQWSITCFMVGDPGRKWSQQSKQVRQKSVWDQLRAAYENAGAQVPEPANVLEIEWSKQQYFQGAPSAVYGLNDLITLGSALRTPFKSVHFVGTETSLVWKGYMEGAIRSGQRGAAEVVASLVPAA
modifications: Cys (-) APAO; removal of cysteine 461 (Exophiala spinifera)
With B2, in test [1] (setting [5]), the Conclusion entry is on record as “Fully Active” and the “M H2O2/min” value is recorded as 2.25 μM H2O2/min. In test [2] (setting [5]), the Conclusion entry is “Slightly active” and the “M H2O2/min” value is on record as 0.14 μM H2O2/min.

B3: C167S, C359S, C461S: triply Cys-mutated version of APAO (SEQ ID NO: 53), plasmid PHP17089 (protein)
chain: KDNVADVVVVGAGLSGLETARKVQAAGLSSLVLEAMDRVGGKTLSVQSGPGRTTINDLGAAWINDSNQSEVSRLFERFHLEGELQRTTGNSIHQAQDGTTTTAPYGDSLLSEEVASALAELLPVWSQLIEEHSLQDLKASPQAKRLDSVSFAHYCEKELNLPAVLGVANQITRALLGVEAHEISMLFLTDYIKSATGLSNIFSDKKDGGQYMRCKTGMQSISHAMSKELVPGSVHLNTPVAEIEQSASGCTVRSASGAVFRSKKVVVSLPTTLYPTLTFSPPLPAEKQALAENSILGYYSKIVFVWDKPWWREQGFSGVLQSSSDPISFARDTSIDVDRQWSITCFMVGDPGRKWSQQSKQVRQKSVWDQLRAAYENAGAQVPEPANVLEIEWSKQQYFQGAPSAVYGLNDLITLGSALRTPFKSVHFVGTETSLVWKGYMEGAIRSGQRGAAEVVASLVPAA
modifications: Cys (-) APAO; removal of cys 169, 359, and 461 (Exophiala spinifera)
For B3, the Conclusion result in test [1] (setting [5]) is on record as “Slightly active”; in test [1] (setting [6]), “Slightly Active”; in test [2] (setting [5]) it was “Slightly active”; in test [2] (setting [6]), “Slightly active”. Moreover, the “M H2O2/min” value was determined as 0.27 μM H2O2/min in test [1] (setting [5]), 0.27 μM H2O2/min in test [1] (setting [6]), 0.25 μM H2O2/min in test [2] (setting [5]) and 0.26 μM H2O2/min in test [2] (setting [6]).

The values above are taken from US6943279B1, “Amino polyol amine oxidase polynucleotides and related polypeptides and methods of use” (priority 1999, dated 2005).
